What was measured:
Experiment in all cases: IEDB peptide-MHC binding, purified MHC/competitive/radioactivity; ≥ and ≤ were set here for values at or beyond the usual limits of such assays
Conditions in all cases: source organism: Bordetella pertussis
[1] = target: HLA-A*02:01
[2] = target: HLA-B*44:03
[3] = target: HLA-B*57:01
[4] = target: HLA-B*35:01
[5] = target: HLA-B*07:02
[6] = target: HLA-B*53:01

## TLSSAHGNV
[1]
  IC50: 48.6 µM

## TEAQGVQVR
[2]
  IC50: 19.9 µM

## SVKVAKKLF
[3]
  IC50: ≥ 70.4 µM

## AEIAFYPKE
[2]
  IC50: 0.48 µM

## AARVAGDNY
[3]
  IC50: 32.3 µM

## LAGSGLFRM
[4]
  IC50: 0.767 µM

## MPKAPELDL
[5]
  IC50: 21 µM

## RARRALRQD
[3]
  IC50: 13.5 µM

## FPTRTTAPG
[6]
  IC50: 0.894 µM

## HANHYGTRI
[6]
  IC50: 52.1 µM

## RPSVNGGRI
[5]
  IC50: 0.348 µM

## KATVTTVQV
[3]
  IC50: 35.2 µM

## EGGKLRGKD
[1]
  IC50: ≥ 78.1 µM

## RETFCITTI
[2]
  IC50: 0.214 µM

## IIKDAPPGA
[1]
  IC50: 15.4 µM

## RRFTHADGW
[3]
  IC50: 55.9 µM

## IIQEFAADL
[1]
  IC50: 4.15 µM

## MAPVMGACM
[4]
  IC50: 5 µM

## ILAGALATY
[4]
  IC50: 4.29 µM

## VKLGGVYEA
[1]
  IC50: 9.59 µM

## AQVTVAGRY
[2]
  IC50: 3.25 µM

## GEAMVLVYY
[4]
  IC50: 36.4 µM

## TAPVTSPAW
[6]
  IC50: 4.36 µM

## RSGARATSL
[3]
  IC50: 21.9 µM

Reference: the Immune Epitope Database (IEDB)
